The assay concerns the target Ubiquitin-B+1 (UBB+1), untagged, expressed in HEK293FT cells. Kind of assay: co-IP with anti-UBB+1 antibody from HEK293FT cells, immunoblot; MS/MS of co-purified proteins. A general note: Immunoblotting shows a protein as a band on a membrane.

B1: UCH-L1 (Ubiquitin C-terminal hydrolase L1), endogenous in HEK293FT cells (enzyme, UniProt P09936 1-220, looked up)
chain: MQLKPMEINPEMLNKVLSRLGVAGQWRFVDVLGLEEESLGSVPAPACALLLLFPLTAQHENFRKKQIEELKGQEVSPKVYFMKQTIGNSCGTIGLIHAVANNQDKLGFEDGSVLKQFLSETEKMSPEDRAKCFEKNEAIQAAHDAVAQEGQCRVDDKVNFHFILFNNVDGHLYELDGRMPFPVNHGASSEDTLLKDAAKVCREFTEREQGEVRFSAVALC
notes: Endogenous protein in the lysate of HEK293FT (human) cells; also called UCL-H1; endogenous UCH-L1
Take B1: the binding result is listed as “binds”.

For the origin of these results see patent publication US20220365073A1 (TECHNION RESEARCH AND DEVELOPMENT FOUNDATION, published 2022).
